Article PMC3576412

Key:
Im9 (Escherichia coli) = Im9 (Escherichia coli) (UniProt P13479); conditions: cited from earlier work
[1] = target: DNase domain of colicin E9, E9 (S3C) (E. coli); test: dynamic force spectroscopy (AFM)

Molecule | Kd (Im9 (Escherichia coli)) [pM] | k0F off (outer barrier) [1] [s⁻¹]
Colicin E9 DNase domain (from UniProt P09883) | 0.016 | –
Im2 (D33A), pulled from residue 81 (natural protein) MELKHSISDYTEAEFLEFVKKIARAEGATEEDANKLVREFERLTEHPDGSDLIYYPRDDREDSPEGIVKEIKEWRAANGKCGFKQG | – | 7.6
